Test results taken from PMC9275233, “Functional Characterization of a Regiospecific Sugar-O-Methyltransferase from Nocardia” (Applied and Environmental Microbiology, 2022).

Legend:
[1] = tested on: C[C@@H]1O[C@@H](Oc2ccc(O)c3c2C(=O)c2ccccc2C3=O)[C@H](O)[C@H](O)[C@H]1O; assay: HPLC methylation assay, nonlinear Michaelis-Menten fit; type: biochemical, Nocardia sp. CS682; settings: 2 mM SAM (saturating), 2 mM MgCl2, 50 mM Tris-HCl pH 7.5, QR 5 to 200 μM
[2] = tested on: C[S+](CC[C@H](N)C(=O)O)C[C@H]1O[C@@H](n2cnc3c(N)ncnc32)[C@H](O)[C@@H]1O; assay: as above; type: biochemical, Nocardia sp. CS682; settings: 100 μM QR (near saturation), 2 mM MgCl2, 50 mM Tris-HCl pH 7.5, SAM 5 to 200 μM

ThnM1 (Nocardia sp. CS682) gave a Km [1] of 11.70 ± 1.97 µM and a Km [2] of 32.7 ± 7.06 µM.
